Test results published in US20100113557A1 (ST MARIANNA UNIVERSITY SCHOOL OF MEDICINE, published 2010).

Molecular target: T1, HERC2 (hect domain and RCC-like domain 2) (human, UniProt O95714 1-4834)
T1 construct: Endogenous protein of 293T or HeLa cells, found in BRCA1 immune precipitates from cell lysates; also called endogenous HERC2
Experiment: immunoprecipitation with anti-BRCA1 antibody, synchronized HeLa cells
Experimental: For the immunoprecipitation of a BRCA1 complex, the cell lysate was allowed to react with an anti-BRCA1 antibody at 4° C. for 1 hour. Thereafter, a precipitation reaction was carried out at 4° C. for 1 hour using Protein A and G sepharose (Invitrogen). The precipitate was washed with a 0.5% NP-40 buffer 3 times, and it was then re-suspended in an SDS sample buffer (50 mM Tris-HCl (pH6.8), 0.2% bromophenol blue, 10% glycerol, 2% SDS, and 100 mM DTT). The suspension was boiled for 3 minutes. As a peptide competition control, an equal amount of blocking peptide was added.

T1 sequence (O95714 other isoform, or with tags, fused parts or gaps limits assumed): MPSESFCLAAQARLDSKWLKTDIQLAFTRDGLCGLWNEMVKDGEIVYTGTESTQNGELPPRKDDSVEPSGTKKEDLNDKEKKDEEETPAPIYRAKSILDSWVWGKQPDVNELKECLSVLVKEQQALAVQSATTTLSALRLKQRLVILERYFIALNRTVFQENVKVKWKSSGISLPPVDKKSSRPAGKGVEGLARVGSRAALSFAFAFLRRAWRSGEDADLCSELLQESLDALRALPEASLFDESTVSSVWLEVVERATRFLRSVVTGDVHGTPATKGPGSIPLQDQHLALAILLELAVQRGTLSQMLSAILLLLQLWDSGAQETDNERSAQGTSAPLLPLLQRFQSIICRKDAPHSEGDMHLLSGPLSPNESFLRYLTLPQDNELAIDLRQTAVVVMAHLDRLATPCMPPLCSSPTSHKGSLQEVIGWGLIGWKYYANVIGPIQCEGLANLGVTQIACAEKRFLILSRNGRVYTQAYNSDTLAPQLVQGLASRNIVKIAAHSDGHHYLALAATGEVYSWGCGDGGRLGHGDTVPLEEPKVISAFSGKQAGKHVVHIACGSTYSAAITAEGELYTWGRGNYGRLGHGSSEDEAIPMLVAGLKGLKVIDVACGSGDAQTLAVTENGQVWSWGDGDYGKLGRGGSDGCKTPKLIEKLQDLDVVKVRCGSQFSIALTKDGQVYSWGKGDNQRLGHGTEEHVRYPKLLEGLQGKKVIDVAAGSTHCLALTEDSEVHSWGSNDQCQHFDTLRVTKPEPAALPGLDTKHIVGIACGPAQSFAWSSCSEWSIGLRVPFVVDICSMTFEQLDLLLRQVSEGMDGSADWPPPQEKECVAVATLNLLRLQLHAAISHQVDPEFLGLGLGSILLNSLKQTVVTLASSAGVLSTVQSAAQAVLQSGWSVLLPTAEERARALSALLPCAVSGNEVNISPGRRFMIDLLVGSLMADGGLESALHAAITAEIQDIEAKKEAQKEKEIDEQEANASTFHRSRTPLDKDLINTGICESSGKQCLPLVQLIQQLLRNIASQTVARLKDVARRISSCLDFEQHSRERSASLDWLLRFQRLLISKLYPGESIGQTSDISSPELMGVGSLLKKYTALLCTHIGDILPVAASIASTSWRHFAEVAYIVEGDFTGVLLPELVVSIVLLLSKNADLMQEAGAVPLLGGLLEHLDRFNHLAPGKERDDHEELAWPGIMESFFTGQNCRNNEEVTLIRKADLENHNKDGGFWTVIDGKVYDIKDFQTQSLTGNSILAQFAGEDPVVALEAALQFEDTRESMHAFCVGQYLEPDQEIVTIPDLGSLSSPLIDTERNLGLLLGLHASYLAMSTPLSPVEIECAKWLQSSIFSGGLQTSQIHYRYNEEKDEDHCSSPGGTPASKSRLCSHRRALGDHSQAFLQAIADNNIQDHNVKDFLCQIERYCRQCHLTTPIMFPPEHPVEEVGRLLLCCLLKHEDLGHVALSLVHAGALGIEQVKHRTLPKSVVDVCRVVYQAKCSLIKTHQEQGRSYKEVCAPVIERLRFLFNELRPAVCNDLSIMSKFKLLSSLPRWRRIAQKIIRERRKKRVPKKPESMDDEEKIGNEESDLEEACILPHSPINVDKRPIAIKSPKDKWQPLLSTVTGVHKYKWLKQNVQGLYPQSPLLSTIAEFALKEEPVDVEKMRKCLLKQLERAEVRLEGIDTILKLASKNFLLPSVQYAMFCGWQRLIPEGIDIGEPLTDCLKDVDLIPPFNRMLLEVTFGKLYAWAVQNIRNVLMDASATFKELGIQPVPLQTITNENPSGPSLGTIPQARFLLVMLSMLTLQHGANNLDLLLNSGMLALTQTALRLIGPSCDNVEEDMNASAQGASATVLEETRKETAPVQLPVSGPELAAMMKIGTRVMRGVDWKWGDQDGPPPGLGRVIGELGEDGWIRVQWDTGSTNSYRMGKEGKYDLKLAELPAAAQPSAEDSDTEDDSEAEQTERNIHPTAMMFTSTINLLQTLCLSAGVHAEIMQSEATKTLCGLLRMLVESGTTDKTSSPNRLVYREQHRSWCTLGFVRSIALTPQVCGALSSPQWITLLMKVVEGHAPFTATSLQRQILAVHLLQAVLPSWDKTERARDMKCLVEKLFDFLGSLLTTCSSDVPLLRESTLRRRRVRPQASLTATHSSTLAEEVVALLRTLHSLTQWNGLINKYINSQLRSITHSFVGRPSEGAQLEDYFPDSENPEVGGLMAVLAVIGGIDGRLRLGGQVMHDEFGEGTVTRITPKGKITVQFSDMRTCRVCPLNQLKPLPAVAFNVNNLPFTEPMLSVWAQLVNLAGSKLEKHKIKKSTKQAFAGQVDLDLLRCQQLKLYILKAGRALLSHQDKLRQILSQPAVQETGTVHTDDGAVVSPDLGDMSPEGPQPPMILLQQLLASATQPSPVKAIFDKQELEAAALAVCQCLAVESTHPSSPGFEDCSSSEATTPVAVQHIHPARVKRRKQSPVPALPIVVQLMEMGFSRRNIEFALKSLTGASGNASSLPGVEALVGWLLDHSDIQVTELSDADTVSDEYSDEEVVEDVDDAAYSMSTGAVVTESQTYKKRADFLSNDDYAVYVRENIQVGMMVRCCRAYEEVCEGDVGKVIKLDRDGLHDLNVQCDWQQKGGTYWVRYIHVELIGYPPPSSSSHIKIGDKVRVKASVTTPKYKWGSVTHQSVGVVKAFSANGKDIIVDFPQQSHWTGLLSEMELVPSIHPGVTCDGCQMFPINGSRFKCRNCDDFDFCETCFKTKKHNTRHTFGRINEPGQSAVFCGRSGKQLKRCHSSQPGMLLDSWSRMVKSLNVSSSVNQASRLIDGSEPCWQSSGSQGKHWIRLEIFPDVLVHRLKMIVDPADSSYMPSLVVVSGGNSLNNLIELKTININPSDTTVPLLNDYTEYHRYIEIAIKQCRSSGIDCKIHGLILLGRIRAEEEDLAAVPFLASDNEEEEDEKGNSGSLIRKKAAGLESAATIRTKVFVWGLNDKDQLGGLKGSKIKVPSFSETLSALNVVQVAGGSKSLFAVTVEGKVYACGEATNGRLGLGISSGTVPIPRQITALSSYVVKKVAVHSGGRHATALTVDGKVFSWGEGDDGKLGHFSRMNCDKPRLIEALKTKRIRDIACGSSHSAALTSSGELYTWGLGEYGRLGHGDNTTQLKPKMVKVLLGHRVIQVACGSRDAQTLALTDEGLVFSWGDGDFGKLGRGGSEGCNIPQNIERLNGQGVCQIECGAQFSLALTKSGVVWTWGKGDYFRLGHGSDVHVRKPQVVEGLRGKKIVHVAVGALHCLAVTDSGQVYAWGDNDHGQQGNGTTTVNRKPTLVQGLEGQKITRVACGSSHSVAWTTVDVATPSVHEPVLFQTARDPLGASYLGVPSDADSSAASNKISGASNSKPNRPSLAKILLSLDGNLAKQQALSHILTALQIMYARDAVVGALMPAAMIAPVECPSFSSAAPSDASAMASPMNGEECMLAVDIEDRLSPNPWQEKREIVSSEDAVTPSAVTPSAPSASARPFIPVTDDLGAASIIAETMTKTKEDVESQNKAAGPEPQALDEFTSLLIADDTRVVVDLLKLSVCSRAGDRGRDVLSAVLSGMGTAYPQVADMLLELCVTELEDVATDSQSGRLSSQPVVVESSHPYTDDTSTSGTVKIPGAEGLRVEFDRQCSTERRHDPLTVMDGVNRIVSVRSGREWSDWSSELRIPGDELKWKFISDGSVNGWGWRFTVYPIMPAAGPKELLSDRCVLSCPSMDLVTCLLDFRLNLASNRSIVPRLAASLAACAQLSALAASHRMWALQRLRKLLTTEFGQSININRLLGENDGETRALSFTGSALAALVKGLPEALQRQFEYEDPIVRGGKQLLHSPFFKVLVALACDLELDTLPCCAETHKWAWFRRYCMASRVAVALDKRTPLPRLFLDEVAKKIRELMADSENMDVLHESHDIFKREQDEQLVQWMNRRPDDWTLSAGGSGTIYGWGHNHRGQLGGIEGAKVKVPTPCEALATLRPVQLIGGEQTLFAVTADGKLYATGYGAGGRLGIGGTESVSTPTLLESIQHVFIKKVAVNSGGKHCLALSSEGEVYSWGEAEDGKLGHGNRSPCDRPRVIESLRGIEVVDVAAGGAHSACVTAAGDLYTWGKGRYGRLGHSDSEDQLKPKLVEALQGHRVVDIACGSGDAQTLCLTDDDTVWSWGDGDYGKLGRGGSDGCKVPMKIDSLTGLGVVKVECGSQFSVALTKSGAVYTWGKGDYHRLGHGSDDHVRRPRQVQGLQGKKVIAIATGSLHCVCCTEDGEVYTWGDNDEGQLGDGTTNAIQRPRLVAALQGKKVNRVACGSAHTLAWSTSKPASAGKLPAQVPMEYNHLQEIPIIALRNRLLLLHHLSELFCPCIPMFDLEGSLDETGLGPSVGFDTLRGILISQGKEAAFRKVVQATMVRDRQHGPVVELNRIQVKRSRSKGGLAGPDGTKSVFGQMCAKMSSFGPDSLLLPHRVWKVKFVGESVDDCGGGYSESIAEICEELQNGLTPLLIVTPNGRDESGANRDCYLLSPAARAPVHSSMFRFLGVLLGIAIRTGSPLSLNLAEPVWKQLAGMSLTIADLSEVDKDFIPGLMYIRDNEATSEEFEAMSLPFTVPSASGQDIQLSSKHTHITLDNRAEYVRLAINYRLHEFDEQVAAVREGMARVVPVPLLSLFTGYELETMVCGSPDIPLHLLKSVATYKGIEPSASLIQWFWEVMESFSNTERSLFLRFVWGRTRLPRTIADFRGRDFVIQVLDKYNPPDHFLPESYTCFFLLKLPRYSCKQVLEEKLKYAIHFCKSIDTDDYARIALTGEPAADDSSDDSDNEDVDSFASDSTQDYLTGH

- binding result: binds
B1: BRCA1 (endogenous) (other, UniProt P38398 1-1863, looked up)
chain: MDLSALRVEEVQNVINAMQKILECPICLELIKEPVSTKCDHIFCKFCMLKLLNQKKGPSQCPLCKNDITKRSLQESTRFSQLVEELLKIICAFQLDTGLEYANSYNFAKKENNSPEHLKDEVSIIQSMGYRNRAKRLLQSEPENPSLQETSLSVQLSNLGTVRTLRTKQRIQPQKTSVYIELGSDSSEDTVNKATYCSVGDQELLQITPQGTRDEISLDSAKKAACEFSETDVTNTEHHQPSNNDLNTTEKRAAERHPEKYQGSSVSNLHVEPCGTNTHASSLQHENSSLLLTKDRMNVEKAEFCNKSKQPGLARSQHNRWAGSKETCNDRRTPSTEKKVDLNADPLCERKEWNKQKLPCSENPRDTEDVPWITLNSSIQKVNEWFSRSDELLGSDDSHDGESESNAKVADVLDVLNEVDEYSGSSEKIDLLASDPHEALICKSERVHSKSVESNIEDKIFGKTYRKKASLPNLSHVTENLIIGAFVTEPQIIQERPLTNKLKRKRRPTSGLHPEDFIKKADLAVQKTPEMINQGTNQTEQNGQVMNITNSGHENKTKGDSIQNEKNPNPIESLEKESAFKTKAEPISSSISNMELELNIHNSKAPKKNRLRRKSSTRHIHALELVVSRNLSPPNCTELQIDSCSSSEEIKKKKYNQMPVRHSRNLQLMEGKEPATGAKKSNKPNEQTSKRHDSDTFPELKLTNAPGSFTKCSNTSELKEFVNPSLPREEKEEKLETVKVSNNAEDPKDLMLSGERVLQTERSVESSSISLVPGTDYGTQESISLLEVSTLGKAKTEPNKCVSQCAAFENPKGLIHGCSKDNRNDTEGFKYPLGHEVNHSRETSIEMEESELDAQYLQNTFKVSKRQSFAPFSNPGNAEEECATFSAHSGSLKKQSPKVTFECEQKEENQGKNESNIKPVQTVNITAGFPVVGQKDKPVDNAKCSIKGGSRFCLSSQFRGNETGLITPNKHGLLQNPYRIPPLFPIKSFVKTKCKKNLLEENFEEHSMSPEREMGNENIPSTVSTISRNNIRENVFKEASSSNINEVGSSTNEVGSSINEIGSSDENIQAELGRNRGPKLNAMLRLGVLQPEVYKQSLPGSNCKHPEIKKQEYEEVVQTVNTDFSPYLISDNLEQPMGSSHASQVCSETPDDLLDDGEIKEDTSFAENDIKESSAVFSKSVQKGELSRSPSPFTHTHLAQGYRRGAKKLESSEENLSSEDEELPCFQHLLFGKVNNIPSQSTRHSTVATECLSKNTEENLLSLKNSLNDCSNQVILAKASQEHHLSEETKCSASLFSSQCSELEDLTANTNTQDPFLIGSSKQMRHQSESQGVGLSDKELVSDDEERGTGLEENNQEEQSMDSNLGEAASGCESETSVSEDCSGLSSQSDILTTQQRDTMQHNLIKLQQEMAELEAVLEQHGSQPSNSYPSIISDSSALEDLRNPEQSTSEKAVLTSQKSSEYPISQNPEGLSADKFEVSADSSTSKNKEPGVERSSPSKCPSLDDRWYMHSCSGSLQNRNYPSQEELIKVVDVEEQQLEESGPHDLTETSYLPRQDLEGTPYLESGISLFSDDPESDPSEDRAPESARVGNIPSSTSALKVPQLKVAESAQSPAAAHTTDTAGYNAMEESVSREKPELTASTERVNKRMSMVVSGLTPEEFMLVYKFARKHHITLTNLITEETTHVVMKTDAEFVCERTLKYFLGIAGGKWVVSYFWVTQSIKERKMLNEHDFEVRGDVVNGRNHQGPKRARESQDRKIFRGLEICCYGPFTNMPTDQLEWMVQLCGASVVKELSSFTLGTGVHPIVVVQPDAWTEDNGFHAIGQMCEAPVVTREWVLDSVALYQCQELDTYLIPQIPHSHY
notes: Endogenous protein, precipitated from cell lysate with an anti-BRCA1 antibody; also called endogenous BRCA1
